The text below walks through data of paper PMC5300874.

In experiment [1] the target is (His)Rpo3, N-terminally histidine-tagged wild-type Rpo3 expressed in Methanosarcina acetivorans (Methanosarcina acetivorans) (UniProt P0CG28).
The target in experiment [2] is (His)Rpo3mFeS2 (Methanosarcina acetivorans) (UniProt P0CG28).
The target in experiment [3] is (His)Rpo3ΔD3 (Methanosarcina acetivorans) (UniProt P0CG28).
Experiment [4] has as its target (His)Rpo3ΔFeS1 (Methanosarcina acetivorans) (UniProt P0CG28).
Experiment [5] addresses (His)Rpo3ΔFeS2 (Methanosarcina acetivorans) (UniProt P0CG28). The experiment can be described thus: pull-down; merodiploid M. acetivorans strains (native Rpo3 also present), tetracycline-induced; (His)Rpo3 variant held on Ni2+-agarose from lysate, anaerobic; eluates normalised to 15 ng (His)Rpo3; western blot for Rpo11, Rpo2′, Rpo1″. On the technique in general: A western blot detects proteins with antibodies after separation by electrophoresis.

Take “Rpo1″ (RpoA″), catalytic subunit of Methanosarcina acetivorans RNA polymerase (natural protein)”: in experiment [1], the nonspecific transcription (RNAP) activity of the imidazole eluate, gene replacement strain DJL51 (counts per min ng^-1 Rpo3) is 210. This substance registered a nonspecific transcription (RNAP) activity of the imidazole eluate, gene replacement strain DJL55 (counts per min ng^-1 Rpo3) in experiment [2] of 94. The nonspecific transcription (RNAP) activity of the imidazole eluate, gene replacement strain DJL54 (counts per min ng^-1 Rpo3) in experiment [3] was determined as 90. This substance came in with a nonspecific transcription (RNAP) activity of the imidazole eluate, gene replacement strain DJL52 (counts per min ng^-1 Rpo3) in experiment [4] of 33.

“Rpo2′ (RpoB′), catalytic subunit of Methanosarcina acetivorans RNA polymerase (from UniProt Q8TRB6 1-604) (natural protein)” returned a percent less in the eluate than with (His)Rpo3 (band intensity) in experiment [5] of 50 % less.
